In general, stoichiometry N refers to the number of molecules, sites or subunits per partner or assembly. As usually defined, the Km is the concentration of substrate that gives half-maximal velocity.

The target of series [1] is HtSH (soluble NAD+-reducing [NiFe]-hydrogenase, HoxFUYH) (Hydrogenophilus thermoluteolus, UniProt A0A077L6X8). The series can be described thus: fluorometric FMN determination in purified protein. The conditions noted are these: bound cofactor content of purified enzyme. Format: binding.
The target of series [2] is HoxFU module of HtSH (Hydrogenophilus thermoluteolus TH-1T) (Hydrogenophilus thermoluteolus TH-1T). Description: co-purification.
Substrate in series [3]: NC(=O)C1=CN([C@@H]2O[C@H](COP(=O)(O)OP(=O)(O)OC[C@H]3O[C@@H](n4cnc5c(N)ncnc54)[C@H](O)[C@@H]3O)[C@@H](O)[C@H]2O)C=CC1
Description: purified protein. The conditions noted are these: benzyl viologen as electron acceptor, 50 °C.

Substrate in series [4]: NC(=O)c1ccc[n+]([C@@H]2O[C@H](COP(=O)(O)OP(=O)(O)OC[C@H]3O[C@@H](n4cnc5c(N)ncnc54)[C@H](O)[C@@H]3O)[C@@H](O)[C@H]2O)c1
Description: purified protein. The conditions noted are these: H2 as electron donor, 50 °C, kcat at pH 6.5.

HtSH (soluble NAD+-reducing [NiFe]-hydrogenase, HoxFUYH), sequence (A0A077L885 1-242 partner, one chain of several): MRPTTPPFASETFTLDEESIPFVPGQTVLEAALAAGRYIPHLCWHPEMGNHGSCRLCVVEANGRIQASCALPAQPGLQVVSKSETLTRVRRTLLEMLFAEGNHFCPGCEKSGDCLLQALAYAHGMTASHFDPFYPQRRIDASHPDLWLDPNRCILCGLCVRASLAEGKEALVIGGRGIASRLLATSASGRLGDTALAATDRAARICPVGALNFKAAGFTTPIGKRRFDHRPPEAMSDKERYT
HtSH (soluble NAD+-reducing [NiFe]-hydrogenase, HoxFUYH), sequence (A0A077L7R5 1-189 partner, one chain of several): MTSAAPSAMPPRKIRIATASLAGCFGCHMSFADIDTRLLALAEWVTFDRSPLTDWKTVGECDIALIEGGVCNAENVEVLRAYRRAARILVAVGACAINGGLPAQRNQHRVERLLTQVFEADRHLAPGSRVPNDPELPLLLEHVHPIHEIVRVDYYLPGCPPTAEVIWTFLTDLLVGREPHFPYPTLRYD
HtSH (soluble NAD+-reducing [NiFe]-hydrogenase, HoxFUYH), sequence (A0A077LAI5 1-468 partner, one chain of several): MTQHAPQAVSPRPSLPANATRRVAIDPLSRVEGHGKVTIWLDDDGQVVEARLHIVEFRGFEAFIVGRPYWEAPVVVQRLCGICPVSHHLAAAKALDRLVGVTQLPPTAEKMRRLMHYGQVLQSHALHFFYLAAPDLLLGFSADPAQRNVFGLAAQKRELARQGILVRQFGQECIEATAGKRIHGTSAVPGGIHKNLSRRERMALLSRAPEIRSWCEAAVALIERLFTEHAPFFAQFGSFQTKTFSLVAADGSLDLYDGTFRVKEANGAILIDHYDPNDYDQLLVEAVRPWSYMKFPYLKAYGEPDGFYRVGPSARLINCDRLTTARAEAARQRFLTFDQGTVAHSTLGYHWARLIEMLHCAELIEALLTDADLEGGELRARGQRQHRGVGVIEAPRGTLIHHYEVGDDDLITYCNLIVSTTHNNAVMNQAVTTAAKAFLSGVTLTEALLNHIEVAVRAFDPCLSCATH

Turning to `Cc1cc2nc3c(=O)[nH]c(=O)nc-3n(C[C@H](O)[C@H](O)[C@H](O)COP(=O)(O)O)c2cc1C` [FMN], in series [1], the “FMN per SH tetramer” value amounted to 1.07 mol/mol.
“HoxYH module of HtSH (Hydrogenophilus thermoluteolus TH-1T) (from UniProt A0A077L7R5 1-189) (complex)” showed a stoichiometry N in series [2] of 1.

B1: HtSH (soluble NAD+-reducing [NiFe]-hydrogenase, HoxFUYH) (Hydrogenophilus thermoluteolus) (protein)
chain: MTTERQRTAPGLLAALHQARSRFGRPLDAQALAELSTAFSLPPGEIAATASFYHFFQTPPARYQIHFVDHVVDHHAGVAALCNHLCAAFAIQPGQRTADARLFVGWTACAGLSDQAPAALINGRPMPRLDAARIDALIEKIQAQIPMDQWPTEWFAVTNAIHRHGPLLTWLDTTPAEAVFEHPTAHDPDAILQAVTDAGLRGRGGAGFPTATKWRFCRENADPERFLICNADEGEPGTFKDRVLLTRYPEHLFAGMILAARAIGADKAILYLRYEYQYLLPQLEAARERIASAQATVPQAERVTLEIALGAGAYVCGEESALIESLEGKPGRPRVRPPYPVTQGYLGHPTVVNNVETLVAVAAIVGNGAAWWRALGTPDSSGPKLFCVSGDVAQPGLYEFPYGVALGDVVTAARPLGTRYAVQVSGPSGTLLPATPEQLARPLAFEALPCNGTVMVFDVRRDPVAIVHHFARFFAHESCGFCTPCRVGTQLIAKTFEKIAAGYATRFDLERLAPALEAMRLASNCGFGLSAGNPVRDLIAHFRQQLEAQLQPHDFIPAFSLDAELAATRRLTGRDDPHAHLAQFEQPEVTR
Regarding B1, the Km was 1200 µM in “purified protein [3]” and 469 µM in the series “purified protein [4]”.
